In series [1] the target is T1, MBP-Mos-1 transposase (MBP-Tnp) (Drosophila mauritiana, UniProt Q7JQ07 SEQ:1-345).
T1 sequence: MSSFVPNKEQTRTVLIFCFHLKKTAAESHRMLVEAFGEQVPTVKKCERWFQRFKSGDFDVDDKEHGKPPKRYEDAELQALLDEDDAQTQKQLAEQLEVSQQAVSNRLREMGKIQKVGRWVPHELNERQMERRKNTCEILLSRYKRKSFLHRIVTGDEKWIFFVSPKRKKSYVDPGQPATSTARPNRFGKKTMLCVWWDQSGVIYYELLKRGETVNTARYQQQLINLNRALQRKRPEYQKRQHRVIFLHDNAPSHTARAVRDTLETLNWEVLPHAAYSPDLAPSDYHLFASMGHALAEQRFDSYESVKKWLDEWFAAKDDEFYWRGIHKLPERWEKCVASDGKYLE
The series is described as follows: competition; competes with labelled ITR3'. The settings on record: tags: N-terminal MBP (pMalC2x); chain copies: 2. Here is the method: The principle of these tests is illustrated in FIG. 9. […] The greater the shift, the greater the “improvement” of the ITRSelex sequence with respect to ITR3′. In practice, the transposase fixing reaction is carried out in 20 μl containing 10 mM of Tris pH9 buffer, 0.5 mM of DDT, 5 mM MgCl₂, 5% (vol/vol) of glycerol, 1 μg of herring sperm DNA and 100 ng of BSA, in the presence of 15 nM of radiolabelled ITR3′ and non-radiolabelled ITRSelex. The non-radiolabelled ITRSelex concentrations tested were 0 nM, 15 nM, 75 nM, 150 nM, 300 nM, 750 nM, 1500 nM.

For series [2], the target named is T2, Mos-1 transposase FQET (Drosophila mauritiana, UniProt Q7JQ07 SEQ:1-345, F53Y,Q91R,E137K,T216A).
T2 sequence: T1 sequence with F53Y, Q91R, E137K, T216A
Put plainly: cell_activity; 3T40 transposition in E. coli T5 vs 3T3/WT. The settings on record: chain copies: 2. The procedure: (§1) Escherichia coli JM109 bacteria were co-transformed with the pBC 3T3 plasmid (comprising a transposition reporter 2 ITR 3′ mariner-like element and the chloramphenicol resistance gene) and with the inducible vector encoding for the transposase (pKK-Tnp or pMal-Tnp) comprising the ampicillin resistance gene. The bacteria selection was performed on ampicillin (100 μg/ml) and chloramphenicol in order to verify the presence of the two plasmids.
(§2) The JM109 bacteria containing both the pBC 3T3 plasmid and the pKK-Tnp (or pMalC2X-Tnp) plasmid were placed in culture for 1 hr at 37° C. in 250 μl of LB. This inoculum was then poured into 5 ml of LB supplemented with 1 mM IPTG. The culture was titrated on LB plates (100 μl of a 1/1000 dilution) and on LB-Tet plates (12.5 μg/ml) (250 μl of the non-diluted culture). The culture induced by IPTG was then cultured for 5 hours at 32° C. (optimal temperature of transposase) under stirring (250 rpm). The bacterial suspension was then titrated on LB plates (100 μl of a 1/250,000 dilution) and on LB-tet plates (100 μl of the undiluted bacterial suspension). The plates were placed at 37° C. overnight. The following day, the colonies were counted on LB and LB-Tet plates, and the transposition frequency (equal to the number of tetracycline bacteria over the number of bacterial per 1 ml of undiluted bacterial suspension) was calculated.
(§3) In order to evaluate the transposition efficiency of systems associating a hyperactive transposase and a pseudo-transposon that is also hyperactive, various combinations were tested in the transposition test in bacteria described in part I, paragraph I-B above.

The next series deals with T3, Mos-1 transposase FT (Drosophila mauritiana, UniProt Q7JQ07 SEQ:1-345, F53Y,T216A).
T3 sequence: T1 sequence with F53Y, T216A
The series is described as above. The conditions noted are these: chain copies: 2. The procedure:
as §1, §2, §3

Series [3] concerns the target T2, Mos-1 transposase FQET. Put plainly: cell_activity; 3T46 transposition in E. coli T5 vs 3T3/WT. The settings on record: chain copies: 2. The procedure: as §1, §2, §3
Series [4] has as its target T1, MBP-Mos-1 transposase (MBP-Tnp). Put plainly: EMSA; 5 mM MgCl2, 4 C. The settings on record: tags: N-terminal MBP (pMalC2x); chain copies: 2. The procedure:
The sequences inducing a delay in migration after incubation with Tnp (positive ITRs) were subjected to a further gel retardation with a purified DNA fragment. The ITR/protein complexes were formed in a final volume of 20 μl containing: 40 μg of MBP-Tnp protein, 1 nM of ITR probe, 1 μg of salmon sperm DNA, 2 μl of 50% glycerol, 5 mM of MgCl₂ and 0.5 μM of pRev. The ITRs only were used at a final concentration of 1 nM in a mixture containing 2 μl of 50% glycerol and 17 μl of buffer. The interaction reactions were maintained for 15 minutes at 4° C. before being analysed on polyacrylamide gel.

Data on two molecules can be found in patent US20100291682, “SYSTEM FOR TRANSPOSING HYPERACTIVE RECOMBINANT DERIVATIVES OF MOS-1 TRANSPOSON” (published 2010).

Changes are numbered by the printed parent chain.

B1: ITR40 (dsDNA)
DNA 1: TCAGGTGTACAAGTATGTAATGTCGTTA
DNA 2: TAACGACATTACATACTTGTACACCTGA
With B1, in series [1], the binding result is “binds”. In addition, the activity with Mos-1 transposase FQET [2] was 3.7 fold; in the series with Mos-1 transposase FT, 2 fold.

B2: ITR46 (dsDNA)
DNA 1: TCAGGTGTACAAGTATGAGATGTCGTTT
DNA 2: AAACGACATCTCATACTTGTACACCTGA
B2: in the series with Mos-1 transposase FQET [3], the activity was 12.3 fold. In series [4], the binding result is reported as “binds”.
